Measured values as given in the Immune Epitope Database (IEDB).

Columns and labels:
Assay in all cases: IEDB peptide-MHC binding, purified MHC/competitive/radioactivity; filed as Kd, often an IC50 or EC50 that approximates it; ≥ and ≤ were set here for values at or beyond the usual limits of such assays
HLA-B*15:01 = biological target: HLA-B*15:01
HLA-A*02:02 = biological target: HLA-A*02:02
HLA-A*02:03 = biological target: HLA-A*02:03
HLA-A*02:06 = biological target: HLA-A*02:06
HLA-B*18:01 = biological target: HLA-B*18:01
HLA-B*44:02 = biological target: HLA-B*44:02
HLA-B*45:01 = biological target: HLA-B*45:01
HLA-B*40:01 = biological target: HLA-B*40:01
HLA-B*44:03 = biological target: HLA-B*44:03
HLA-B*40:02 = biological target: HLA-B*40:02
HLA-B*08:01 = details: source organism: Vaccinia virus WR
HLA-A*02:01 = details: source organism: Homo sapiens
HLA-A*68:02 = details: source organism: Homo sapiens
[1] = source organism: Vaccinia virus WR
[2] = source organism: SARS coronavirus Tor2
[3] = source organism: Mammarenavirus machupoense

Sequence	Kd (HLA-B*15:01; [1]) [µM]	Kd (HLA-B*18:01; [2]) [µM]	Kd (HLA-B*44:02; [2]) [µM]	Kd (HLA-B*45:01; [2]) [µM]	Kd (HLA-B*40:01; [2]) [µM]	Kd (HLA-B*44:03; [2]) [µM]	Kd (HLA-B*40:02; [2]) [µM]	other results
LVQYRILPM	0.0633							Kd (HLA-A*02:02; [1]): 14.8 µM; Kd (HLA-A*02:03; [1]): 1.17 µM; Kd (HLA-A*02:06; [1]): 4.67 µM
MDGIQYGRSG		≥ 70.5	≥ 49.9	10.9	≥ 69.6	≥ 58.6	≥ 70.8	
MELPTGVHA		18	7.8	0.0789	≥ 24.9	13.8	2.74	
MEVQSLAMST		0.969	7.21	0.259	2.06	0.951	≥ 20.1	
MMKTYIEFV	0.17							
MSIDHCSSF	0.000952							
MVHIYFVSL	5.46							Kd (HLA-B*08:01): 0.00135 µM
NAHKLILSG	18.1							
NDFVSDADST		≥ 70.5	≥ 32.7	2.6	≥ 69.6	≥ 70.1	≥ 70.8	
NEKVAGFAKF		1.56	0.0379	18.8	≥ 53.7	0.527	≥ 70.8	
NSKNTSMSF								Kd (HLA-B*15:01; source organism: Dengue virus 3 Martinique/1243/1999): 0.526 µM
PENQEDPLVL								Kd (HLA-B*18:01; [3]): ≥ 70.4 µM; Kd (HLA-B*44:02; [3]): ≥ 70.2 µM; Kd (HLA-B*45:01; [3]): ≥ 70 µM; Kd (HLA-B*40:01; [3]): ≥ 39.5 µM; Kd (HLA-B*44:03; [3]): ≥ 70.1 µM; Kd (HLA-B*40:02; [3]): ≥ 70.8 µM
PLESDAVECL								Kd (HLA-A*02:02; source organism: Homo sapiens): 4.23 µM; Kd (HLA-A*02:01): ≥ 63.1 µM; Kd (HLA-A*02:03; source organism: Homo sapiens): 11.9 µM; Kd (HLA-A*68:02): ≥ 65.2 µM; Kd (HLA-A*02:06; source organism: Homo sapiens): ≥ 68.5 µM
